Results published in paper PMC8673766 (Science Advances, 2021).

Target: T1, inhibin B (UniProt P05111 233-366; P09529 293-407)
T1 sequence (looked up) 1: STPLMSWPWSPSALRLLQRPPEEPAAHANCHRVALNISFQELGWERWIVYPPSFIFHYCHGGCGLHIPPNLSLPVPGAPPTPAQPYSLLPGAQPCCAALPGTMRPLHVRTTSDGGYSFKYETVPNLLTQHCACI
T1 sequence (looked up) 2: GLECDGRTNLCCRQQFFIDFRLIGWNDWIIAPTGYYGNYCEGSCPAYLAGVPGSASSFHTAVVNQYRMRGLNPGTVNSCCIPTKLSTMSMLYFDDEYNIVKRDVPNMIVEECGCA
Assay: SPR

Kd: 52 nM
B1: murine TGFBR3L extracellular domain (R36-R211) (domain or fragment, UniProt D3YZZ2 36-211, looked up)
chain: RRPLFSLELSDAEDAFPRRAGPLEVPADSHVFVQAALARPSPRWGLALHRCSVTPSSRPTLGPALVLLRGGCPADDSVSFSPPPRPDAASVSRFSFRLRPVFNASVQFLHCQISRCRRRSSHHRRAVRLTPVPLTPPAPLRCLPQDEACAGSSLSLGTDSPHLHMLTQPIVVTIPR
